Reference: publication doi:10.1101/163188

Experiments:
[1] = tested on: TePif1 (Thermotoga elfii (Pseudothermotoga elfii)); experiment: EMSA
[2] = tested on: TePif1-4x (Thermotoga elfii (Pseudothermotoga elfii)); experiment: EMSA

Substance	Kd [1] [nM]	further results
Fork	4.4	–
ssDNA 45-nt	0.93	–
3' tail	–	binding signal [1]: > 20 % bound
5' tail	4.53	–
TTTTTTTTTTTTTTTTTTTTTTTTTTTTTTTTTTTTTTTTTTTTTTTTTT [poly(dT) 50mer]	–	binding signal [2]: 5 % bound
